Source: patent US20230176070A1

T1: PDZ domain of mitochondrial outer membrane protein 25 (mammalian (so in the source)) (UniProt P57105)
T1 sequence (looked up): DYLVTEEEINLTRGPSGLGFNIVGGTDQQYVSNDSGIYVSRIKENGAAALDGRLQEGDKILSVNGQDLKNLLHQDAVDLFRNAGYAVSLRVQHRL


How the values were obtained:
[1] = target: human serum albumin (human) (UniProt P02768); assay: indirect ELISA, HSA coated
[2] = target: GST fusion PDZ mutant protein (R46E:K48D) (mammalian (so in the source)) (UniProt P57105); assay: ELISA, wild type PDZ against PDZ R46E:K48D
[3] = target: GST fusion PDZ mutant protein (R46E:K48D) (mammalian (so in the source)) (UniProt P57105); assay: indirect ELISA, PDZ R46E:K48D coated
[4] = target: T1, PDZ domain of mitochondrial outer membrane protein 25 (mammalian (so in the source)); assay: indirect ELISA, wild type PDZ coated

Chain of human serum albumin (human) (P02768 25-609 limits assumed): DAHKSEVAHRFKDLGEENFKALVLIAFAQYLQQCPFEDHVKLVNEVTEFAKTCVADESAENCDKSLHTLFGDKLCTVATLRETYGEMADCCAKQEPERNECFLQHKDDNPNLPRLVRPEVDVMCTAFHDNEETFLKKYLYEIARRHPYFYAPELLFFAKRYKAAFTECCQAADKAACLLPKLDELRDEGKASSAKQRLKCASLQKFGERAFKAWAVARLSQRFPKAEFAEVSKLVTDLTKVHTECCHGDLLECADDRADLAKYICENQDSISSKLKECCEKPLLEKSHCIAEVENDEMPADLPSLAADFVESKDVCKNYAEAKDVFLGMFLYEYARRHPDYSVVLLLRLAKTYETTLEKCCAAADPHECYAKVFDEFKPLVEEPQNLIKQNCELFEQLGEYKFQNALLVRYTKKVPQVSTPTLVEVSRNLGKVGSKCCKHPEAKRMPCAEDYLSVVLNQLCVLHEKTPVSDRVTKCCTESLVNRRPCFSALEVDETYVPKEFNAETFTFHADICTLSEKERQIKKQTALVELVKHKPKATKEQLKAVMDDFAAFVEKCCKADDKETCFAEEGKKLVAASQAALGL

Row | ELISA affinity (LogIC50 (oD450nm)) [1] | Affinity fold change [2] [fold] | Mutant ELISA affinity (LogIC50 (oD450nm)) [3] | WT ELISA affinity (LogIC50 (oD450nm)) [4] | Binder
1 | 1.62 |  |  |  | H23 (VHH) VHH: DVQLVESGGGLVQAGGSLTLSCAASGRTFSSSTMGWFRRAPGKEREFVAAISGSARTTDYADSVKGRFTISRDNAKNTVYLQMISLKPEDTAIYYCARKRVVDVTTSNYELRYDYWGQGTQVTVSS
2 | 5.03 |  |  |  | H33 (VHH) VHH: HVQLVESGGGLVQAGGSLRLSCAASGRTLSSYDMGWFRQPPGKEREFVAAITRHDFNTFYRDSVKGRFTISRDNAKNTVYLQMNSLKSEDTAVYFCAARLDPIFASNSEYAPLYDYWGQGTQVTVSS
3 | 5.07 |  |  |  | H34 (VHH) VHH: QVQLVESGGGLVQAGGSLRLSCAASGRTLSSYDMGWFRKAPGKEREFVAAITRHDYNTYYRDSVKGRFTISRDNAKNTVYLQMNSLKSEDTAVYFCAARLDPIFASNSAYSNLYDYWGQGTQVTVSS
4 | 4.92 |  |  |  | H42 (VHH) VHH: HVQLVESGGGLVQAGGSLRLSCAASGLTFSNYAMGWFRQAPGKEREFVVAISWSGANTYYSDSVKGRFTASRDNAKKTVYLQMNSLKPEDTAVYYCAADYRGLGYSTAHEYDYWGQGTQVTVSS
5 | 1.07 |  |  |  | H31 (VHH) VHH: QVQLVESGGGLVQPGGSLRLSCTPSGFRLEDYPIAWFRQAPGKEREGLSCITSGDGRTYYEESVKGRFTISRDNAQNKVYLQMNKLTPEDTAVYHCATVPSDNLCGYLHRRPFASWGQGTQVTVSS
6 |  | 12.1 | 4.35 | 5.44 | P2 (VHH) VHH: DVQLVESGGGLVQAGGSLRLSCAASGHTFSSYTMGWFHQAPGKEREFVAEISGTGGNTGYADSVKGRFTISRDNAKNTVYLQMNSLKPEDTAVYYCAAVIGSPTDSSDYRSSLDYDYWGQGTQVTVSE
7 |  | 3.32 | 4.73 | 5.25 | P6 (VHH) VHH: HVQLVESGGGLVQAGGSLRLSCAASGRTFSRYTMGWFHQAPGKEREFVAEISGTGGNTGYADSVKGRFTMSRDNAKNTVYLQMNSLKPEDTGVYYCAAVIGSPTDSSDYRSSLDYDYWGQGTQVTVSE
8 |  | 3.04 | 4.78 | 5.26 | P3 (VHH) VHH: DVQLVESGGGLVQAGGSLRLSCAASGRTFSSYTMGWFHQAPGKEREFVAEIGGTGGNTGYADSVKGRFTISRDNAKNTVYLQMNSLKPEDTAVYYCAAVIGSPTDSSDYRSSLDYDYWGQGTQVTVSE
9 | 5.62 |  |  |  | H44 (VHH) VHH: EVQLVESGGGLAQAGGSLRLSCAASGGTFSNSCMGWFRQAPGMEREFVAIIRSTGHTTYADSVEGRFTVSRDIAKNTVYLEMNSLKPEDTAVYSCAAGASDYGCYHTSGISYWGQGTQVTVSS
10 |  | 28000 | 0.0071 | 4.45 | P13 (VHH) VHH: QVQLVESGGGLVQAGGSLRLSCAASGRTFSTYTMGWFRQAPGKEREFVAAVTWSETLYSDSVKGRFTISRDNAKNTVYLQMNSLKPEDTAVYYCAAVQGSPVDTIVVLTTSEEYDYWGQGTQVTVSS
11 |  | 1 | 4.58 | 4.42 | P4 (VHH) VHH: HVQLVESGGGLVQAGGSLRLSCAAAGRTSSDYAMGWFRQAPGKEREFVSAINWSGISTYYADSVKGRFTISRDNAKNTVHLQMNSLKPEDTAVYYCAAEKLESLRNWHDPLMYDYWGQGTQVTVSE
12 |  | 11700 | 0 | 4.07 | P11 (VHH) VHH: DVQLVESGGGLVQAGGSLRLSCVASGRTFSTYTMGWFRQAPGKEREFVAHIGWSGSSTYYADSVKGRFTISRDNAKNTMYLQMNSLKPEDTAVYYCAVAIGSPVDSYRHSDPLEYDYWGQGTQVTVSE
13 | 3.16 |  |  |  | H40 (VHH) VHH: EVQLVESGGGLVQAGASLRLSCAASGGTFSSYIMGWFRQAPGKEREFVAAISWSGRSTHYADSVKGRFAISRDNDRVYLQMNSLKPEDTAVYSCAADPNYTWRDDRYYREEGYTYWGQGTQVTVSS
14 |  | 185 | 2.61 | 4.88 | P9 (VHH) VHH: DVQLVESGGGLVQAGGSLRLSCVASVASGRTFGWYDMGWFRQAPGKEREFVAAISWSGGSTYYADSVKGRSTISRDNAKNTVYLQMNSLKPEDTAVYYCAARGGGTSVDSDYDVGEFEYDYWGQGTQVTVSE
15 | 5.2 |  |  |  | H39 (VHH) VHH: QVQLVESGGGLVQAGVSLRLSCAASERTFSSYIMGWFRQAPGKEREFIAAISWSGGNTDYAGSVQGRFTISRDNAQNTVYLQMNSLEPEDTAVYYCAADATHSWSYGSRWYDRNYNYWGQGTQVTVSS
16 | 1.46 |  |  |  | H10 (VHH) VHH: DVQLVESGGGLVQAGGSLRLSCRASGLPFGPYTMGWFRQTPGQEREFVAAITWSSMNTNYADSVKGRFTISRDSAKNTVYLQMNTLKPDDTAVYYCAADDRAVPMLGDFEDYIYWGQGTQVTVSS
17 |  | 23.5 | 3.83 |  | NbPDZ P10 (VHH) VHH: DVQLVESGGGLVQAGGSLRLSCTASGRTFSTYTMAWFRQAPGKEREFVAAITWSGTYYADSVKGRFTISRDNAKNTMYLQMNSLKPEDTAVYICAAVIGSTVDSYSPSDPLEYDYWGQGTQVTVSE
18 |  | 25.7 | 3.74 | 5.15 | P14 (VHH) VHH: QVQLVESGGGLVQAGDSLRLSCTASGRTFSTYTMAWFRQAPGKEREFVAAISWSGTYYADSVKGRFTISRDNAKNTVYLQMNSLKPEDTAVYYCAAVIGSTVDTYSPSDPLEYDYWGQGTQVTVSS
19 | 1.96 |  |  |  | H13 (VHH) VHH: HVQLVESGGGLVQAGGSLRLSCAASGRTFSTYHMGWFRQAPGKAREFVAAITGSGGITYYADSVKGRFTISRDNAKNTVYLQMNSLKPEDTAVYYCAADTRAYGLVPSTTSSRYNYWGQGTQVTVSS
20 | 5.33 |  |  |  | H32 (VHH) VHH: HVQLVESGGGLVQAGGSLRLSCAASDTIDNYARAWFRQAPGKEREFVAAITWTFGTPYYTDSVKGRFTISRDDAKNTVYLQMNSLKPEDTAVYYCAASLYLPVRTASGGYRLDTDRPQYWGQGTQVTVSS
21 |  | 50600 | 0 | 4.7 | P5 (VHH) VHH: DVQLVESGGGLVQAGDSLRLSCAASGITFRWYTMAWFRQAPGKERDFVATINWSGSDTNYADSVKGRFTISRDNAKNTVTLQMNSLQPEDTAVYYCAGVPGTSLSGETDPRDYDYWGQGTQVTVSE
22 | 1.49 |  |  |  | H37 (VHH) VHH: QVQLVESGGGLVQAGGSLRLSCAASGLTFSNYALGWFRRAPGKERDFVAAISYSGGSTDYADSVKGRFTISRDNAKNTVYLQMNSLKPEDTAVYYCAAAYLGWGTARTAYEYWGQGTQVTVSS
23 | 2.44 |  |  |  | H38 (VHH) VHH: HVQLVESGGGLVQAGGSLRLSCAASELTFSNYAMGWFRRAPGKERGFVAAISYSGGSTDYADSVKGRFTISRDNAKKTVYLQMNSLKPEDTAVYYCAAAYMGWGTARSAYEYWGQGTQVTVSS
24 |  | 2060 | 1.66 | 4.97 | P15 (VHH) VHH: QVQLVESGGGLVQAGGSLRLSCVASGRPFSSLDMGWFRQRPGKERDVVATINWTGDSTYYLDSVKGRFTISRDNAKNTVFLQMNSLKPEDTAVYYCAARGGGSSVDSEYDVGEFEYDYWGQGTQVTVSS
